Assay results reported in the domain aggregation screens of Martell et al. (2025).

Test: soluble fraction after stress (log2 fold change); higher = more stays soluble; pooled small domains, quantitative proteomics
Details: stress: 50 degC
Method in brief: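 Pooled custom libraries of small protein domains were measured in a high-throughput format, with quantitative proteomics as the read-out. Each library was stressed at 50°C. Aggregation propensity is given as the base-two logarithm of the fold change in how much of each protein stays soluble after the stress. Higher values mean a larger share of the protein remains in solution.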

Sequence | soluble fraction (log2)
HMQSVEELLDAIGDERLLHILLEADRKTLQIVVLKMMGYAPKEIGSHIGMPEQTVYTKLRRLREKIKKI | -1.49
HMARTTIATPWDKINDLLQGGLGNGDFGLIFGNPGGGKSWSLVALGGFAVKLGYNVIHYTLE | -0.054
HMLSAPMPGTVLEVHVKEGQRVREGQTLVVMEAMKMEHRVQAPRAGVVTKLHYSEGDRVDVGAILVEIG | 0.0919
HMKEPPTLEEIKNYFASKLSTELESEKFFNYFESNGWLVGGKTPMKNWQSAANNWLINMSKFN | -0.47
HMNSKYILLQVSDIPKTSLVLERQFGVTEYSVQDEHTLRIYDTSLDMAAVNKALVVQDIAVISSQL | -0.353
HMEPSAQEIANKLLGHVKSLGLPITGLSISYNSTSDLATVRGQVQSQADREKIILAVGNVDHVAKVDDQLT | -0.0356
HMLLELINLQVKILENEELKIIGKVIDLENEKNNLLVIELLKDQKKVLVPFVKEIVPLIDIKNNFIMINPP | -0.897
HMSHGFVHLKGAVQHPGIYPVKENTRWDEVVKAAGGLTAAADIQQVNLAKVASDQESLYVPEKGET | 0.098
HMEEDGAPLESREVLLDQAISQGKGTQWTIATETKLEDHIVSGAYSTDGKVTLAVFSPLGDGKYEFSSSVN | 0.0751
HMSQYELEDVEKQRLKFKNGDEKALWLLSDIYKDNSQSYEVRLAALRALSESRHPLIIFDIQSSVK | -0.208
HMNVNTNTILKSLMETYPDSTVFKKAEIVSIANSLGFKKSDYSPLTSTDNRTDVRGQYDLSAVIIPMRESN | -0.13
HMDKDTFGEFENVKLTEEEYNKLVEKLGENNTKLMIEELSTGIASKGYKYKSHYATILSWSRRRVTKLQER | 0.0444
HMFLTDHEVSKVARKRAHAEYLSSLSWRQRTFGDHGERSKNFEAWYKEHSHLYETEKLYKELYKN | -0.567
HMIQIGEQIRYYRTKIGISQEALALMADINPAYIGQIERGIKSPTVNTIKKIANAMGINLHTLFT | -2.91
HMPKSVRQSFVYSPMYRDVEYLADFLRNNNKDDSSVSASGDKLVYYGTADEIARVKSVLKGVDV | -0.026
HMTILKEGMSGPEVERLQDALKRHGFDPGRVDGQFGPGTEAAILAFQKSEGLRADGVAGPKTQQALGLE | 0.131
HMIPLSDEETILLKLLEATETHLDALIRGSQLSAAKVSVVLMGMEMKRLVKRLPGQMYQRWD | -1.84
HMKKSTLLLFFLKELLEGKKISLKSFALENDINIRTAQRYIEDIEEAFPDNLLKENDFYSFV | -2.25
HMHPKDVPTRRELEVLQAVSEGLSTAEIGLRLDITENTVETFRRRLIQKFDAKNAIDLVVKAMAQGWIKV | -1.16
HMDDLATAYKAMGVDASISDKDLKRAYRKLMSQHHPDKMIAKGVPADMVAMATEKTQEIQAAYDLIERSR | 0.127
HMFMLQAKRVPVSELENFKGIVAEDVVSQSRALILPRGSNLSWLSSSAMQNLSTRLALEGVESISIYL | -1.43
HMSSWEDNFSYWIRNVAETLDKDLLNVANSKLEKIIINAALDQTNGKKNEAAILLGLGRNTLAKKIKELG | -0.858
HMGLSASVIQMFADLGYTSEGRSTKEMITDYQIDHSIIKNSTEDGAGTYGPRTKASLSTVHAQYI | -0.103

Sequence | soluble fraction (log2)
HMDSGVPEWLASALRASPVAWKNFLALPPSHQRRYVGWISSARRDETRNRRIAEAISLLVEHKRLG | -1
HMSAEKDGEWLTLTEAAKHLQVSPHVIRRLIQTGALPAEQVMRGAPHQIRAADLDTDRVKTMIAR | 0.193
HMGNFQNIFRKLRTSSNLTQNAIAEKLGISRSTIGMYETGAREPDFETLEKIADYFNVDTDFLLGRTNQTT | -0.106
HMNAVITTQKAKQIALAHAGLSEADVNYVKAELENDDGVQVYDIEFYSKNIEYDYDINAVTGEIMSFDHDI | -0.47
HMAPREELIAIHEALDKLEREDPQVSQLVKLRYFVGMTMAEAADAMDLKKRAAEALWTYGKAWLHREIKKN | -2.85
HMDFYPARVKWFNKSKGFGFANIFKSNDDIFLHIETLKRSGLSDLETGEAIVLTVTEGPRGKMADTILTWD | -0.433
HMAGHKVDFSELPARSQAFIGKNFPTEMVKNVEMERKDAKDHYTVLLSNGTKVMFDGTSGELTGV | 0.0973
HMDLDPVEKLHLLSQLYVGQLKGSFVVKEKNQKTTIIGEVRELSHQTLSIRTNEGYRLIEVADILEIRLWE | -0.221
HMTPKTSVPKPGQTVVVRKGDTIYALARIHDITPADLIAWNRLDNPSQIYPGQVIRLYPQGA | -0.107
HMSFESMGLTPRQADVLTLLLQGKSNKDIARRLVLSVETVKDHVQAVLRALGVSSRTQAVLAVGQMTQQ | -0.292
HMVENATPEEREALNDIAMEAMGMVKDGKPTSAREFVQSQNLDNDQKILLWSLLDAPTRSALKTAEK | -0.133
HMKKLPEKFDYNEISGLRIEAQQKLNEFQPLNIGQASRISGVTPADISVLLVYLEQLKYSNPDLFFKLNPD | -0.798
HMPREQQENVYLLEKAKRLYEEYLGDQRQTIGHALAQFERVLESQDPAAIRRAQKEFGEFLERYDG | 0.102
HMALSLPDDMTIVRKDGSSLEVRLKSRTVTEIHFERISDSETFQFSIDQLDETTRELVEQYPVM | -0.0919
HMTASVTDAMFELIDELPKLGKTSFRQLTADLVDRLQVVVTFLAVLELYKQGHVELDQSERFGDITVVWTG | -0.0255
HMVSYTLPTLHTGKNWYVDFTAYDPAEQKMKRKKYMLDGISKITERRKRAVDIIATVTARLRSGWNPWA | -2.7
HMLPSDLDEGNRRRQLIEGAARLFRAKGFDGTSTRDIAAAAGMRSGSPFYHFDSKNALLYVVVQEGM | -0.0519
HMKEKPLWAIRITELREEHYFTQTDVSKALGIAQTTYAGYETGRHEPDFETMIKIADIYKVSLDYLIGR | -1.27
HMNQDMINFDKLSVRLKNVLIENNLKTVDSLLNYPAEEFEYLTNLGEKTLQELLTYRNELAASNNIQ | -0.289
HMPGTAAQARQLKAWLKENGEKPGAALPALQKAQEIYGYVPREVQQLIADALHKPLTEIYGVSTFYSQFNL | -0.573
HMSSAMDMISRDVRNADSISISTTTYSKKIDLYNFDRNGDIEELHSYSAKNDLGILYNDEPI | -0.276
HMTVLTDEIKVILISYIKENDFKKKHGNRKMMMTAQDMYDELVEKGYKISYPTVTQYVQKYRENETT | -1.27
HMKMVSTPTGTRISLTQVKEFISNASFDDMKEILLEVLAWFKAHNLGNPFNYNRAFEFIVAH | 0.102

Sequence | soluble fraction (log2)
HMTDAELDLLTPREQEVLQLIARGYLYKEIARRLGISVKTVEAHASSVLRKLQLSTRHELSHWAAQRH | -0.258
HMASEKSEQLYQQMKLDIAGMPPDTRLPSIRALMRSYSVSQLLIDRTLGRLREEGALRKRFDGLYTYL | -2.06
HMFDPAKQMQRIRKYAGMNRKEFSEWLNIPYRTMTDWELGNRTMPVYLLELIVYKVNHEIANA | 0.186
HMSVKSVSLRKISYKVRRGDSLYNIAKNFSLSINDITHWNSINKKSYLQPGQRLTLYINPRN | -1.71
HMTPPPTNSREWMEWGISHGLDANLDRSGQVVFYTDDRVVADAAELSGADLERDNMGQFVIYTGAYDKG | 0.0665
HMGSQSYVAIVNERFKESDIVELGGSVGSRTGDIITLHFRNSSPNELKNITGIVYLQVANKVTPKL | -0.612
HMRVDYKTQLQELLQRQGAAAPQYRLLVEEGPAHLRRFQVGVYFQGRLLGTGWGRNKKEAEQEAARQALMP | -0.494
HMGRSYTIKSGDTLWAIATRYYGNGAQYSKIYNANKGTIESVAKSRGFRSSQNGHWIFPGTSITI | -0.207
HMLVSVSNYLGQNVDTVKSDLEALGLVVKLKEQQTDRESENGAVLEQSIEGGSKVSAGTPITLTYGK | 0.187
HMLKDININVTGLDQISNAKLINNLNLLKMNNLFFLDEKKIKKILNSNNLIEKFFIFKKYPSTLDIKVYKT | -0.0369
HMFDGRSDAEKTLDLIKTAIDNILKGGAIQEYKIGTRTAKKYDMAELQVLKGEYAAMVAREKQAETMA | -0.132
HMAVLEGPAGKLGIVRFEANRSFTGMGHERFSSADQAFGTKPAAVVASRLFATGQVAGVHVYGNIITVELA | 0.528
HMTGSLRVTSSPSGAEIYVDEIYRGYTPLTIGSLSTGRHEVRLHLSGYQDYTRTVEIESGSQSSFSVTLT | 0.0152
HMVVEDDTVLQAVKQAIEENPEAVSDYFEGKSKALNFLVGQVMRITRGKADPAKTNQMVVEELKNR | 0.111
HMPSRPIQVASFSKEDNAKRAAEALAKIGVTATPQKSEKAGKAVWGVVVTGDDAMLQKIKDAGFADAYFL | 0.0921
HMSTIAAMADPRAWALEMLGFPPGTVKPSKREIQVRFRESLRDVHPDHGGDSRTASASINDLSEARRVLLS | -0.188
HMDKIYVYTTRGQVIELPRGSTAIDFAYKIQTDIGNMIIAAIVNDKLVDANYVLHNKDRVKIVTS | -1.92
HMQQVIEGLDSDRDFITVPEAIALFAVGRQTLYHYIRSGKIPSVNLGQRLTRLSKKQLGELFPLR | -1.63
HMLIADADSLRKQIETVLANAPNEVAAYRGGKETLMGWFVGQIMRATGGKADPKLTREILAELLQ | 0.00102
HMNTQGWEIFEGRITTADTDLNPSGWIRIDGQRIFVISDAGFIDKGKEVSILSVDGNRVLVRK | -0.641
HMTAGYFTRGSHQDEVLRIQGTPSGVNKYSDHEVWNYGLSSVDISLRDRRVTEWNNISGNLKV | -0.152
HMNNLPDFIKQLRKENNLTQEYVASEIGVSRPTYEQIEKGKRELTISEAEKLAKIFNIPLENFLQGKKGV | 0.184
HMTLHEAMEKLFRQVGRPMTTKEIAEKLNENKWYQKADGSPLTPYQIYGRAKNYPALFHREGSIIYLKGS | -0.41
